Test system: K4 kissing-loop RNA reporter
Assay: apparent KD of K4 kissing-loop reporter; higher = weaker reporter binding
Conditions: Eterna round: R107; input ligand: none
Experimental: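 RNA-MaP round R107: designed RNA switches with theophylline, tryptophan, arginine or FMN aptamers are transcribed on-chip within common flanks. They are titrated with a labelled K4 kissing-loop RNA reporter in RNA-MaP buffer (100 mM Tris pH 7.5, 80 mM KCl, 4 mM MgCl2), without ligand or with the indicated ligand. Median apparent KD per design.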
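Further: bound reporter read as fluorescence of individual clusters on recovered sequencing chips by microscopy, with normalized cluster intensities fitted with a binding model.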

Sequence | apparent KD of K4 kissing-loop reporter [nM]
GGGAGUAGUGCGGCCGCCACUGAGAAAGAAGAAGAAUAUAGUGAUGUUAUAUAGGAAUAAAAGAAUAGGACCGGGCAUUAGAUUU [SSTRyptB.S] | 269
CUCGUGGGUUUGGGAGGGCUUGUGGGAAGAUAGGAUAUCUAGGGAGGGAGAAGGAUCUAUAGAAUAUAGUGAUGUUAUAUAUGGG [SSFMNA.aA] | 165
GGAUUGCCAGUGAUGUUGGCAUAAACUGAAGGAGCGCGUGAAAACGCAGGUAGGUCGCAGAACCUUGCCAACUAUAUUAUUUACC [Ex Arginine A K4 22] | 123
UUUCGUAGAAGUGAUACCAGACUGGAAAGUGAUGUUUUCCAAUUAUUUAAAUCCUUAUCUGUCCCUUGGCAGCACAGUUUAUUUA [JR_Nu_ExcTheophyB_Sub027] | 75.5
AUUGUACAAGUGAUGUUUGUUUUUUCCGAAGGAGCGUCUAAUAAGACAGGUAGGUCGCGGAUUCUCUUAAUAAUCAGGUCAUUAA [JR_Nu_ExcArginiA_Sub020] | 305
ACCCUGGGUCCCGAAAGGGACCCAGGGAGUGAGGAUAUGUGGAAACACAGAAGGCACAGCACAGUGAUGUUGUGCGACGAAAGUC [#02 K4 FMN A Same State] | 401
UGACUGGACUGAAGGAGCGAGGACGGUCAUAGACCGAAUUCAGUGAUGUUGAAAAUAAAACCUCAGGUAGGUCGCAGUCUAGUCU [ArgBS 3 #SwitchBubble #StaticStem] | 219
UGAUAGGACAGAAGGAGCGGUAGUGAUGUUACCAAAAGUAUAAGGUGUCAAAAGACACCCUACCAGGUAGGUCGCUGUCCUAUCU | 367
UGGAUAUAGUGAUGUUAUAUAGAGAUUGAUACCAGUUAAGAGAAUAGCCCUUGGCAGCAGAAAGAAGUAUCAUUAGAGAAGAAUG [ExTheophyl.Ac] | 222

Same assay, conditions: Eterna round: R107; input ligand: theophylline 20 uM

Sequence | apparent KD of K4 kissing-loop reporter [nM]
UGAUACCAGACGGCCGCCACUCCCGUAAGUCAAAGACUUACGAAGAGAGUUUUCCAGUGAUGUUGGAGGACCGGGUCUGGUAUCU [FiskerMod 15 - Jieux - Exclusion - Tryptophan B] | 174
CUGAUGCUGAUGCGGCGGCCGGUGGUCGUGCGAGGACCGGUACGGCCGCCACUCGCGCGAGUGAUGUUCGCGCGUCGUCGUCGUC [First Shot] | 76.9
AAUAAAAUCACGGCCGCCACUGAUACUAGUAUUAGCAGUGAUGUUGCUAUGUAUAAUUUAUUAAAUAGGACCGGGUGAAUAUUUA [#25 K4 Tryptophan B Exclusion] | 350
AAAUUCUUUUUUUUAUUUAACUUUUCAGAAGGAGCGUGGUAGUACACAGGUAGGUCGCUGAAUUUUGGACUAGUGAUGUUAGUUA [JR_SSArginiA_Sub007] | 228
AAGCAGUCACUCUAAGCCAUCGAAGAUGGACGAGGACCGGUACGGCCGCCACUCGGAGUGAUGUUCCGAAGACUGCAAAAUAAAA | 396
CAUACUAUCAGAAGGAGCGUGGAAUAUUCAUCUGUAUCUAAUACGAGUGAUGUUCGUAAUUCACAGGUAGGUCGCUGAUUAAUAC [whbob_Ex_Arginine_B_2th159] | 269
GCGCGUGUUAAAGGAUAUAGCAGGUGAUACAAGAAAGUGAGUGAUGUUUAUGUAGAUGAUGAUAUGUUAGAAGGUUAACAAGCGC [abcdefghijklmnopq] | 739
UGGGAUGUUAAAGGAUAUAGCAAGUGAUAUAAGAAAGUGAGUGAUGUUGAUGUAGGUGAUGAUAUGUUAGAAGGUUAACAAAACG [abcdefg] | 294
UGGCGAGUGAUGUUCGUUGUUGUAGUGUGUCGAGGACCGGUACGGCCGCCACUCGGGUUGGUUGUUGUUGUUGUUGUUGUUGUUG [First Shot] | 292
GGGAGUAGUGCGGCCGCCACUGAGAAAGAAGAAGAAUAUAGUGAUGUUAUAUAGGAAUAAAAGAAUAGGACCGGGCAUUAGAUUU [SSTRyptB.S] | 215
CUCGUGGGUUUGGGAGGGCUUGUGGGAAGAUAGGAUAUCUAGGGAGGGAGAAGGAUCUAUAGAAUAUAGUGAUGUUAUAUAUGGG [SSFMNA.aA] | 230
GGAUUGCCAGUGAUGUUGGCAUAAACUGAAGGAGCGCGUGAAAACGCAGGUAGGUCGCAGAACCUUGCCAACUAUAUUAUUUACC [Ex Arginine A K4 22] | 146
UUUCGUAGAAGUGAUACCAGACUGGAAAGUGAUGUUUUCCAAUUAUUUAAAUCCUUAUCUGUCCCUUGGCAGCACAGUUUAUUUA [JR_Nu_ExcTheophyB_Sub027] | 97.6
AUUGUACAAGUGAUGUUUGUUUUUUCCGAAGGAGCGUCUAAUAAGACAGGUAGGUCGCGGAUUCUCUUAAUAAUCAGGUCAUUAA [JR_Nu_ExcArginiA_Sub020] | 281
ACCCUGGGUCCCGAAAGGGACCCAGGGAGUGAGGAUAUGUGGAAACACAGAAGGCACAGCACAGUGAUGUUGUGCGACGAAAGUC [#02 K4 FMN A Same State] | 175
UGACUGGACUGAAGGAGCGAGGACGGUCAUAGACCGAAUUCAGUGAUGUUGAAAAUAAAACCUCAGGUAGGUCGCAGUCUAGUCU [ArgBS 3 #SwitchBubble #StaticStem] | 216
UGAUAGGACAGAAGGAGCGGUAGUGAUGUUACCAAAAGUAUAAGGUGUCAAAAGACACCCUACCAGGUAGGUCGCUGUCCUAUCU | 506
UGGAUAUAGUGAUGUUAUAUAGAGAUUGAUACCAGUUAAGAGAAUAGCCCUUGGCAGCAGAAAGAAGUAUCAUUAGAGAAGAAUG [ExTheophyl.Ac] | 213

Same assay, conditions: Eterna round: R107; input ligand: tryptophan 2.4 mM

Sequence | apparent KD of K4 kissing-loop reporter [nM]
UGAUACCAGACGGCCGCCACUCCCGUAAGUCAAAGACUUACGAAGAGAGUUUUCCAGUGAUGUUGGAGGACCGGGUCUGGUAUCU [FiskerMod 15 - Jieux - Exclusion - Tryptophan B] | 232
CUGAUGCUGAUGCGGCGGCCGGUGGUCGUGCGAGGACCGGUACGGCCGCCACUCGCGCGAGUGAUGUUCGCGCGUCGUCGUCGUC [First Shot] | 117
AAUAAAAUCACGGCCGCCACUGAUACUAGUAUUAGCAGUGAUGUUGCUAUGUAUAAUUUAUUAAAUAGGACCGGGUGAAUAUUUA [#25 K4 Tryptophan B Exclusion] | 256
AAAUUCUUUUUUUUAUUUAACUUUUCAGAAGGAGCGUGGUAGUACACAGGUAGGUCGCUGAAUUUUGGACUAGUGAUGUUAGUUA [JR_SSArginiA_Sub007] | 153
AAGCAGUCACUCUAAGCCAUCGAAGAUGGACGAGGACCGGUACGGCCGCCACUCGGAGUGAUGUUCCGAAGACUGCAAAAUAAAA | 399
CAUACUAUCAGAAGGAGCGUGGAAUAUUCAUCUGUAUCUAAUACGAGUGAUGUUCGUAAUUCACAGGUAGGUCGCUGAUUAAUAC [whbob_Ex_Arginine_B_2th159] | 219
GCGCGUGUUAAAGGAUAUAGCAGGUGAUACAAGAAAGUGAGUGAUGUUUAUGUAGAUGAUGAUAUGUUAGAAGGUUAACAAGCGC [abcdefghijklmnopq] | 605
UGGGAUGUUAAAGGAUAUAGCAAGUGAUAUAAGAAAGUGAGUGAUGUUGAUGUAGGUGAUGAUAUGUUAGAAGGUUAACAAAACG [abcdefg] | 257
UGGCGAGUGAUGUUCGUUGUUGUAGUGUGUCGAGGACCGGUACGGCCGCCACUCGGGUUGGUUGUUGUUGUUGUUGUUGUUGUUG [First Shot] | 101
GGGAGUAGUGCGGCCGCCACUGAGAAAGAAGAAGAAUAUAGUGAUGUUAUAUAGGAAUAAAAGAAUAGGACCGGGCAUUAGAUUU [SSTRyptB.S] | 159
CUCGUGGGUUUGGGAGGGCUUGUGGGAAGAUAGGAUAUCUAGGGAGGGAGAAGGAUCUAUAGAAUAUAGUGAUGUUAUAUAUGGG [SSFMNA.aA] | 106
GGAUUGCCAGUGAUGUUGGCAUAAACUGAAGGAGCGCGUGAAAACGCAGGUAGGUCGCAGAACCUUGCCAACUAUAUUAUUUACC [Ex Arginine A K4 22] | 102
UUUCGUAGAAGUGAUACCAGACUGGAAAGUGAUGUUUUCCAAUUAUUUAAAUCCUUAUCUGUCCCUUGGCAGCACAGUUUAUUUA [JR_Nu_ExcTheophyB_Sub027] | 70
AUUGUACAAGUGAUGUUUGUUUUUUCCGAAGGAGCGUCUAAUAAGACAGGUAGGUCGCGGAUUCUCUUAAUAAUCAGGUCAUUAA [JR_Nu_ExcArginiA_Sub020] | 221
ACCCUGGGUCCCGAAAGGGACCCAGGGAGUGAGGAUAUGUGGAAACACAGAAGGCACAGCACAGUGAUGUUGUGCGACGAAAGUC [#02 K4 FMN A Same State] | 217
UGACUGGACUGAAGGAGCGAGGACGGUCAUAGACCGAAUUCAGUGAUGUUGAAAAUAAAACCUCAGGUAGGUCGCAGUCUAGUCU [ArgBS 3 #SwitchBubble #StaticStem] | 204
UGAUAGGACAGAAGGAGCGGUAGUGAUGUUACCAAAAGUAUAAGGUGUCAAAAGACACCCUACCAGGUAGGUCGCUGUCCUAUCU | 286
UGGAUAUAGUGAUGUUAUAUAGAGAUUGAUACCAGUUAAGAGAAUAGCCCUUGGCAGCAGAAAGAAGUAUCAUUAGAGAAGAAUG [ExTheophyl.Ac] | 177

Reference: the supplement of paper PMC9170038
